Drawing on paper PMC8843702 (The Journal of Clinical Investigation, 2022), this text covers Kd for one molecule.

The target in experiment [1] is SARS-CoV-2 S protein (SARS-CoV-2, Wuhan-Hu-1 reference, UniProt P0DTC2). The experiment is described as follows: SPR. The conditions noted are these: both partners purified.
Experiment [2] deals with SARS-CoV-1 S protein (SARS-CoV-1, strain not named (P59594 …, UniProt P59594)). Briefly: SPR. The conditions noted are these: both partners purified.

B1: P14-44 (antibody, V domains shown)
VH: QVQLVQSGAEVKKPGASVKVSCKASGYIFTSYSMHWVRQAPGQGLEWMGTIKPSDDSTNYAQKFQGRVSMTRDTSTSTVYMELSSLRYEDTAVYYCAREARGYYDRSGYYHPGYFDYWGQGTLVTVSS
VL: QSVLTQPASVSGSPGQSITISCTGTSSDVGGYNFVSWYQQHPGKAPKLMIYEVSDRPSGVSSRFSGSKSGNTASLTISGLQAEDEADYYCFSYTTSTTWVFGGGTKLTVL
notes: also called P14-44 IgG; source: HEK293F, transfected, purified (Protein A)
B1: the equilibrium dissociation constant (Kd) – broadly, the equilibrium constant for the complex coming apart – in experiment [1] was found to be 0.55 nM; in experiment [2], 4.3 nM.
